molecular target: human PTH receptor on mouse cranial bone-derived osteoblast-like cell strain MC3T3-EI (mouse cell strain (receptor given as 'human PTH receptor')) (UniProt P41593); assay: cell-based or functional assay
Sequence of UniProt P41593 (P41593 27-591): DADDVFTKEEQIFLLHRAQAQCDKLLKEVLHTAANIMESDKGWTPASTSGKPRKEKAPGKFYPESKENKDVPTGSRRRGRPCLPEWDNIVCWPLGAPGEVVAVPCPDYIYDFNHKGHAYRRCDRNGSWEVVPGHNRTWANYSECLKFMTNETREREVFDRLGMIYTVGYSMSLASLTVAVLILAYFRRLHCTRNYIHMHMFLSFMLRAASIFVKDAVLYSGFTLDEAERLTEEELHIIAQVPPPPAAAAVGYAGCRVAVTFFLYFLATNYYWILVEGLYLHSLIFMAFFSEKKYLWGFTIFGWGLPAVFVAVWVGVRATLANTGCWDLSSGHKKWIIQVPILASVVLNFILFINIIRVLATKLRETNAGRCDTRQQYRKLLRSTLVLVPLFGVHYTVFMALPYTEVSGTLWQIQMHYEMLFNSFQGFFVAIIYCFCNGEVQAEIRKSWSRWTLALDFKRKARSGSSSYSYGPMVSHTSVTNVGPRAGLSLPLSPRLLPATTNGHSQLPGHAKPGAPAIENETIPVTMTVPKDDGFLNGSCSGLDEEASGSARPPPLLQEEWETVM

Going from [Cys³⁵] human PTH (1-84) (ligand) to [Leu⁸] human PTH (1-84) (ligand), the Specific Activity (cAMP production in MC3T3-EI cells) (relative to natural type human PTH) rises from 0.6 to 1.

First: Human PTH (1-84) (ligand)
Second: [Leu^8,18] human PTH (1-84) (ligand)
The Specific Activity (cAMP production in MC3T3-EI cells) (relative to natural type human PTH) of the first is higher: 1 for the first, 0.3 for the second.

For “[Leu⁸] human PTH (second row with this label in the specific activity table; identity uncertain) (ligand)”, the Specific Activity (cAMP production in MC3T3-EI cells) (relative to natural type human PTH) was 0.2.

Reference: patent EP0528271A1
